The numbers were not newly measured in article PMC7337045, which cites them from elsewhere.

In this data set the target is IRS-1 phosphopeptide (UniProt P35570).
Chain of IRS-1 phosphopeptide (P35570 whole entry, looked up, tested part not stated): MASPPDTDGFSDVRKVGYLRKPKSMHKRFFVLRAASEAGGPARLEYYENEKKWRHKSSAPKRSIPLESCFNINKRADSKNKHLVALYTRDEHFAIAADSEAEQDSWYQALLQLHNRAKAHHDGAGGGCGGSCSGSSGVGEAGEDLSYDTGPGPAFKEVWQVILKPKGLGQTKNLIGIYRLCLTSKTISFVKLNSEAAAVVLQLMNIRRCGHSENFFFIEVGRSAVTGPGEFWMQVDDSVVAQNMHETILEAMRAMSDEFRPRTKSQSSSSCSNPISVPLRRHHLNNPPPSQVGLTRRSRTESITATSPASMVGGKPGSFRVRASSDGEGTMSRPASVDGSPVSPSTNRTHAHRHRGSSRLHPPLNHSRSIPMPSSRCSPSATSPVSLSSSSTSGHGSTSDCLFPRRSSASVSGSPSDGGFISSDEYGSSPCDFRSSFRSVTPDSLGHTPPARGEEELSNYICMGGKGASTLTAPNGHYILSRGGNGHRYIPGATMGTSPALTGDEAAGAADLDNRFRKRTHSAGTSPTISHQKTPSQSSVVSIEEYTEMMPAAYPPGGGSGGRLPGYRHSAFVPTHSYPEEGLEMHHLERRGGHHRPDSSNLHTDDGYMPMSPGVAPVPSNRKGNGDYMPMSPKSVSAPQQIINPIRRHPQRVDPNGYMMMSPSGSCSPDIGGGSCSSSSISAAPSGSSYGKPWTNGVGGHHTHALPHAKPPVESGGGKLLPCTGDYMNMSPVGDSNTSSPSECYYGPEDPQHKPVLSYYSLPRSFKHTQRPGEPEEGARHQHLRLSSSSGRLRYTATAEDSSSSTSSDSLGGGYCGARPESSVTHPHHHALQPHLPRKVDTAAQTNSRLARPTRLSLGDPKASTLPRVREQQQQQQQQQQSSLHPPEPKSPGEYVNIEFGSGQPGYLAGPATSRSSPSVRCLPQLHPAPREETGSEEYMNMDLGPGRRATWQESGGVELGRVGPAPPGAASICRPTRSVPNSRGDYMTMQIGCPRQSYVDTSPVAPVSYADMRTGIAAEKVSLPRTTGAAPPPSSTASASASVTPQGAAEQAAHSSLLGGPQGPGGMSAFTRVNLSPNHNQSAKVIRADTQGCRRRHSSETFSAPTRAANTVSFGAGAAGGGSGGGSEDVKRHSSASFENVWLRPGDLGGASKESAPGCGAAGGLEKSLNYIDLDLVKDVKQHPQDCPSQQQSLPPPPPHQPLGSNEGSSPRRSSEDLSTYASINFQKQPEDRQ

Regarding SHP2 N-SH2 (from UniProt Q06124), the Kd was 14 nM.

Usually Kd stands for the constant that tells how readily two partners part at equilibrium.
